Biological target: human MUC17 (huMUC17), membrane form (human, UniProt Q685J3 26-4493)
Assay: immunohistochemistry on tissue sections

binding result: binds
B1: anti-huMUC17 4C11 IHC antibody (antibody, mouse IgG2a, kappa, V domains shown)
VH: EVQLQQSGPELVKPGDSVKISCKASGYSFTGNFLNWVMQSHGKSLEWIGRITPYSGETFYNQKFKDKATLTVDISSSIAHMELRSLTSEDSAVYYCARGVTTEVSHYYAMDYWGQGTAVTVSS
VL: DIQMNQSPSSLSASLGDTITITCHASQNINLWLHWYQQKPGNIPKLLIFKASNLHTGVPLRFSGSGSGTGFTLTISSLQPEDIATYFCQQGQSYPLTFGGGTKLEIKR
notes: Mouse hybridoma-derived monoclonal antibody; also called 4C11 antibody; the antibody of the invention

From patent US20230129844A1 (Amgen, published 2023)
